Data taken from the supplement of paper PMC10567573.
± gives the standard deviation.

Assay: protein stability index of a GFP-peptide fusion (GPS, HEK-293T) (PSI 1-6); higher = more stable
[1] = treatment: DMSO, c terminus: a fixed tail appended
[2] = treatment: MLN4924 1 uM, 8 h, c terminus: a fixed tail appended
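Also: 24-mer peptide tiles fused after GFP, lentivirally expressed, FACS-sorted into six equal bins by GFP/DsRed ratio, decoded by Illumina sequencing, PSI is the read-weighted mean bin number.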

Sequence | protein stability index [1] | protein stability index [2] | protein stability index (treatment: DMSO, c terminus: native) | protein stability index (treatment: MLN4924 1 uM, 8 h, c terminus: native)
PGPGSGPGSGPGHGSGSHPGPASG [SPAG8] | 5.08 ± 0.3 | 4.97 ± 0.26 | – | –
PGSQTAVKNSNRYDVEMTDELVGL [FBXO34] | 4.98 ± 0.12 | 4.93 ± 0.27 | – | –
PHDRSQGDWAPPPEGGMEQALAGA [ZNF263] | 4.85 ± 0.26 | 4.83 ± 0.31 | – | –
PHQREKIDKEIELHRILHHKHVVQ [PLK2] | 3.48 ± 0.19 | 3.73 ± 0.34 | – | –
PHVCSLCGKAFYKKYRLTEHERAH [ZNF649] | 4.54 ± 0.24 | 4.66 ± 0.55 | – | –
PIHTIILNPHVHLVGDDAACIAYI [CAMK2D] | 2 ± 0.45 | 3.12 ± 1.6 | – | –
PIRSRRALPPLRTRSKSDPVLHPS [FAM189A2] | 4.9 ± 0.17 | 4.94 ± 0.16 | – | –
PLHAPEAYFPYFKKHNVTAVVRLN [CDC14A] | 2.17 ± 0.094 | 2.08 ± 0.37 | – | –
PLLHKDSASLEVVKKDHVALQVPR [CBY2] | 4.31 ± 0.095 | 4.3 ± 0.49 | – | –
PLRPLLGFRESDSAKPASLRLLQH [C6orf223] | 3.41 ± 0.39 | 3.6 ± 0.27 | – | –
PMDVYETGIEYIVAQGPTNQGLNV [ADAMTSL2] | 3.19 ± 0.68 | 3.54 ± 0.39 | – | –
PMMKLKRHFVAQKYKKQIDHMYH [ACSBG2] | – | – | 2.7 ± 0.32 | 2.75 ± 0.32
PMNRRNILVMKHNYSQDAADACDI [NETO1] | 3.59 ± 0.11 | 3.8 ± 0.27 | – | –
PNPPTLQEAGLSHTEVLFVQDLTD [FAF2] | 4.54 ± 0.27 | 4.64 ± 0.16 | – | –
PNRFLRGHRPPPARSGHRCVADNT [KLHDC10] | 4.04 ± 0.2 | 4.32 ± 0.34 | – | –
PNYLANPAFPFIYTPTAEDSAQMQ [ANKRD40] | 3.85 ± 0.28 | 4.08 ± 0.26 | – | –
PPETSLPYKWVVEAANLLIPAVGS [MYBL2] | 2.41 ± 0.42 | 2.27 ± 0.29 | – | –
PPHREGEAAGGDHETESTSDKETD [CDS1] | 5.67 ± 0.31 | 5.58 ± 0.57 | – | –
PPHRRRLLFACSPPPASQPVVKAL [CDC25A] | 2.64 ± 0.22 | 2.98 ± 0.1 | – | –
PPKKPSNWRRKHEEFIATIRAAKG [ZC2HC1A] | 3.65 ± 0.15 | 3.82 ± 0.14 | – | –
PPQLRPGAPTSLQTEPQDRSPAPM [BCL2L11] | – | 5.18 ± 0.077 | – | –
PQKSLFFHHIPSTCQRVNGIKVQN [SLC19A2] | 2.61 ± 0.17 | 2.78 ± 0.27 | – | –

Sequence | protein stability index [1] | protein stability index [2] | protein stability index (treatment: DMSO, c terminus: native) | protein stability index (treatment: MLN4924 1 uM, 8 h, c terminus: native)
PQYAERLLSGAFKKRRLPPVHIHP [FOXJ1] | 2.76 ± 0.22 | 2.9 ± 0.1 | – | –
PRGQEGSRQDKPLSPAGSSQEAAD [YJU2B] | 5.54 ± 0.079 | 5.48 ± 0.2 | – | –
PRSTVRQKVASNHSPFSSESRALS [TBX5] | 4.11 ± 0.25 | 4.15 ± 0.19 | – | –
PSLGPALSTGPRGLCAMPQTGDAF [VENTX] | 3.64 ± 0.089 | 3.6 ± 0.17 | – | –
PSNFLEIDVSNPQTVGVGRGRFTT [SNX3] | 3.84 ± 0.29 | 3.8 ± 0.59 | – | –
PSTYGGGLSVSSRFSSGGACGLGG [KRT16] | 3.21 ± 0.21 | 3.44 ± 0.2 | – | –
PSVPCTPAPQVGTQIRTITEEIRD [KRT36] | 5.07 ± 0.36 | 5.22 ± 0.24 | – | –
PTHLSNGQMSTPETPQPSPPGGSG [HNF4A] | 5.15 ± 0.15 | 4.98 ± 0.24 | – | –
PTMHLESPALQVMGPAQEAPVAEA [ZNF449] | 5.22 ± 0.17 | 5.21 ± 0.07 | – | –
PVENFFVKCNGALINTSDTVQHGA [SDE2] | 3.07 ± 0.12 | 3.08 ± 0.26 | – | –
PVFNAMFEHEMEESKKNRVEINDL [SPOPL] | 4.26 ± 0.32 | 4.69 ± 0.21 | – | –
PVIEELTNAGFLQTESELQELSEV [FAN1] | 4.87 ± 0.1 | 4.92 ± 0.16 | – | –
PVNPELTAGPITGLVYRLNRFRVE [TRIM43] | 2.71 ± 0.29 | 2.85 ± 0.33 | – | –
PVPILEKLPLQIDCLAAWEEWLLV [VPS39] | 2.24 ± 0.19 | 2.18 ± 0.27 | – | –
PVSMEMDNHMSDKDESCYDNAEAA [INTS3] | 5.53 ± 0.36 | 5.53 ± 0.23 | – | –
PVTQIGFEAPPLQGQAAAPASGSG [TRIM55] | 5.14 ± 0.42 | 5.22 ± 0.14 | – | –
PYKWVVEAANLLIPAVGSSLSEAL [MYBL2] | 2.88 ± 0.32 | 2.63 ± 0.67 | – | –
QAQGARAGGSARRPDTGDDAAGHG [GMCL1] | 5.41 ± 0.4 | 5.57 ± 0.35 | – | –
QARQFRTFHHPTYGSCYTVDGVWT [SCNN1D] | 2.21 ± 0.19 | 2.3 ± 0.2 | – | –
QAWGSMLEVPAGSRLNLTGLGYFS [CCDC3] | 2.35 ± 0.3 | 1.79 ± 0.2 | – | –
QCANKVLQHMKAVQADQERERQRR [LRRC59] | 3.93 ± 0.4 | 4.17 ± 0.18 | – | –
QDDLTVVLNEEGICTQKCALNWTD [VPS39] | 4.04 ± 0.49 | 4 ± 0.67 | – | –

Sequence | protein stability index [1] | protein stability index [2] | protein stability index (treatment: DMSO, c terminus: native) | protein stability index (treatment: MLN4924 1 uM, 8 h, c terminus: native)
QEDITKSLLVTELGSSRTPETVRM [IMPA1] | 4.58 ± 0.12 | 4.49 ± 0.34 | – | –
QEELPALLKALVSELSEHLRDPLT [FCHSD1] | 2.13 ± 0.31 | 2.25 ± 0.071 | – | –
QEFAARAAKQLEYQQLEDDKLSQK [EPB41L3] | 5.17 ± 0.81 | – | – | –
QEHQSALEEAKQPKNDNVVIPECA [SMOC2] | 5.51 ± 0.23 | 5.46 ± 0.27 | – | –
QENQARTHVLSKEVQHLREEKSKQ [LRRC45] | 5.2 ± 0.29 | 5.36 ± 0.29 | – | –
QEVTKLQQQVKTNGAGVTVLRREI [FBXO28] | 3.97 ± 0.25 | 4.03 ± 0.45 | – | –
QFSSRDCTRPVPRNGGKYCEGRRT [ADAMTS4] | 4.22 ± 0.47 | 4.51 ± 0.55 | – | –
QFTAWPDHGVPEHPTPFLAFLRRV [PTPRD] | 2.44 ± 0.2 | 2.76 ± 0.26 | – | –
QGEEPWVQVSPEFKDSAGKSPTGL [ZNF75A] | 4.87 ± 0.22 | 5.04 ± 0.22 | – | –
QGEICLCTSRIFVQKSIYSEFLKR [ALDH8A1] | 2.29 ± 0.64 | 2.06 ± 0.49 | – | –
QGKADGLYPNPRERSSFYSCAGGR [CHIT1] | 3.64 ± 0.097 | 3.87 ± 0.31 | – | –
QGVHQGAGFQDIPKRCLKAREHFG [TSN] | 3.31 ± 0.36 | 2.9 ± 0.27 | – | –
QHNLRYSLENTLTESEARYSSQLS [KRT33B] | 4.11 ± 0.27 | 4.11 ± 0.21 | – | –
QICGTHRQTKKMFCDMDKSLLCLL [TRIM43] | 2.77 ± 1 | 2.18 ± 0.36 | – | –
QIQEFKEAFTLMDQNRDGFIDKED [MYL5] | 5.12 ± 0.26 | 5.19 ± 0.32 | – | –
QKLEREARICRLLKHPNIVRLHDS [CAMK2A] | 2.5 ± 0.13 | 2.72 ± 0.17 | – | –
QKSGLIRHQKIHSGEKPYKCSDCG [ZNF649] | 3.63 ± 0.52 | 4.04 ± 0.29 | – | –
QLAAGRHGDDLKNTKNEISELTRL [KRT71] | 4.58 ± 0.32 | 4.52 ± 0.15 | – | –
QLGQRIYQYIQSRFYRSPEVLLGT [DYRK1B] | 2.23 ± 0.16 | 2.53 ± 0.44 | – | –
QLNGILLHLESELAQTRAEGQRQA [KRT18] | 2.93 ± 0.26 | 2.86 ± 0.16 | – | –
QLVNSSADNMLEYKSWLKNLAKEQ [PPEF2] | 3.24 ± 0.17 | 3.77 ± 0.5 | – | –
